{"source": "paper PMC6616073", "about": "(Frontiers in Pharmacology, 2003)", "binders": {"B1": {"name": "Lynx1 short linear (4), shorter loop II fragment of human Lynx1 with free terminal Cys (peptide)", "peptide": "CTRTYYTPTRMC", "notes": "also called Lynx1 linear short (4); peptide 4"}, "B2": {"name": "SSS (5), synthetic loop II fragment of the Drosophila sleepless protein with terminal Cys, disulfide-cyclised (peptide)", "chain": "CKMVRHQRSPYEVVRRMC", "modifications": "disulfide 1-18"}, "B3": {"name": "Lynx1 linear (2), synthetic 15-membered loop II fragment of human Lynx1 (peptide)", "peptide": "TTRTYYTPTRMKVSK", "notes": "also called Lynx1 linear fragment (2); peptide 2"}, "B4": {"name": "Lynx1 short (3), shorter loop II fragment of human Lynx1 with terminal Cys, disulfide-cyclised (peptide)", "peptide": "CTRTYYTPTRMC", "modifications": "not fully specified (bridges); cysteine pairing not given here", "notes": "also called peptide 3; cyclic shorter form of Lynx1 fragment"}, "B5": {"name": "Lynx1 (1), synthetic loop II fragment of human Lynx1 with Cys added at both termini, disulfide-cyclised (peptide)", "peptide": "CTTRTYYTPTRMKVSKC", "modifications": "not fully specified (bridges); cysteine pairing not given here", "notes": "also called Lynx1 fragment (1); peptide 1"}}, "test_in_all_cases": "radioligand binding", "key": {"[1]": {"molecular_target": "T1, human α7 nicotinic acetylcholine receptor stably expressed in the rat pituitary tumor-derived cell line GH4C1 (human, UniProt P36544 23-502)", "T1 construct": "also called α7 nAChR; human α7 nAChR", "T1 sequence (P36544 23-502)": "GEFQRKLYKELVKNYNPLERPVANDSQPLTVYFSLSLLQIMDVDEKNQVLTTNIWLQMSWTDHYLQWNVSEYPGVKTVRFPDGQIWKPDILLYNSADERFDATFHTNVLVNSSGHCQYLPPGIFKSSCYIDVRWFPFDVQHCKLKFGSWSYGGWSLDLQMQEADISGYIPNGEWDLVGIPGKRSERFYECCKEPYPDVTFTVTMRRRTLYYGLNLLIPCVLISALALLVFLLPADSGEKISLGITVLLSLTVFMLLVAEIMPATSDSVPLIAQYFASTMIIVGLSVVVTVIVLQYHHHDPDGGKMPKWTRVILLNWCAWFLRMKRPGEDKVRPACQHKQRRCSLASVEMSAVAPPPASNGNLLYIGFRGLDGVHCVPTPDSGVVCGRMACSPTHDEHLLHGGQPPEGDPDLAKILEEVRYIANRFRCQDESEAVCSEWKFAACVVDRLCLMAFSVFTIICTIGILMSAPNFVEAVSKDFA", "conditions": "one partner purified"}, "[2]": {"molecular_target": "T2, ligand-binding domain of the human nAChR α9 subunit (human, UniProt Q9UGM1 23-238)", "T2 construct": "also called α9 LBD; human α9 LBD", "T2 sequence (Q9UGM1 23-238)": "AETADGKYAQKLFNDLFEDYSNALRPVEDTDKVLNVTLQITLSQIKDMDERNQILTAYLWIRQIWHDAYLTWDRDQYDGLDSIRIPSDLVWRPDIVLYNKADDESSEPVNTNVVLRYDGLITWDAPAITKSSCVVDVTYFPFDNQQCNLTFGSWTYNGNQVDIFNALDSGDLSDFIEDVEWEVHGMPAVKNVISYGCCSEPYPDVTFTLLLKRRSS", "conditions": "both partners purified"}, "[3]": {"molecular_target": "T3, membrane-bound Torpedo californica nicotinic acetylcholine receptor (Torpedo californica)", "T3 construct": "also called T. californica nAChR; Torpedo nAChR", "T3 sequence (P02710 25-461 limits assumed, chain 1 of 4)": "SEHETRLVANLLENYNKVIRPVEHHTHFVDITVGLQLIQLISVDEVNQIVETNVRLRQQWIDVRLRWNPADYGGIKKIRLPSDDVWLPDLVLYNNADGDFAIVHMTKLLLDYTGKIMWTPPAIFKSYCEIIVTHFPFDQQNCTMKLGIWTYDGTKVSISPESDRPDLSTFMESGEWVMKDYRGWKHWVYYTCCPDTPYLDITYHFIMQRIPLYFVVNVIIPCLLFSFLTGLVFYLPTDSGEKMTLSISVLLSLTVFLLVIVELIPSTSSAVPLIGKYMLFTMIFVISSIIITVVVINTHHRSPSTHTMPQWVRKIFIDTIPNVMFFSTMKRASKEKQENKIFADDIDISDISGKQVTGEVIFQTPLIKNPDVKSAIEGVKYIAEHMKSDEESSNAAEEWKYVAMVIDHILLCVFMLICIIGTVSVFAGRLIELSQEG", "T3 sequence (P02712 25-493 limits assumed, chain 2 of 4, further chain)": "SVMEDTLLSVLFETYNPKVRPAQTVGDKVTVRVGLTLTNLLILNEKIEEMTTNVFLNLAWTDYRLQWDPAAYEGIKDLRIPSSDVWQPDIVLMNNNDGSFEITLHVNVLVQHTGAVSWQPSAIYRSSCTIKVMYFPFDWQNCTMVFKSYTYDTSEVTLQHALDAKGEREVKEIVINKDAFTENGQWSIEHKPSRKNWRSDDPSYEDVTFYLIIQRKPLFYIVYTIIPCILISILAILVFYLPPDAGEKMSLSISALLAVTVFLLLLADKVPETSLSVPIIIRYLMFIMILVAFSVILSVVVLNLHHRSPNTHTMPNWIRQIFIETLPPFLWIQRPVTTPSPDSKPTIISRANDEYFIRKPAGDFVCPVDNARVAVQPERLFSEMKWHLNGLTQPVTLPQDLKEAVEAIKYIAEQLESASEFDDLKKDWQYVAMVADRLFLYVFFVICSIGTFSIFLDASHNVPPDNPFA", "T3 sequence (P02714 18-506 limits assumed, chain 3 of 4, further chain)": "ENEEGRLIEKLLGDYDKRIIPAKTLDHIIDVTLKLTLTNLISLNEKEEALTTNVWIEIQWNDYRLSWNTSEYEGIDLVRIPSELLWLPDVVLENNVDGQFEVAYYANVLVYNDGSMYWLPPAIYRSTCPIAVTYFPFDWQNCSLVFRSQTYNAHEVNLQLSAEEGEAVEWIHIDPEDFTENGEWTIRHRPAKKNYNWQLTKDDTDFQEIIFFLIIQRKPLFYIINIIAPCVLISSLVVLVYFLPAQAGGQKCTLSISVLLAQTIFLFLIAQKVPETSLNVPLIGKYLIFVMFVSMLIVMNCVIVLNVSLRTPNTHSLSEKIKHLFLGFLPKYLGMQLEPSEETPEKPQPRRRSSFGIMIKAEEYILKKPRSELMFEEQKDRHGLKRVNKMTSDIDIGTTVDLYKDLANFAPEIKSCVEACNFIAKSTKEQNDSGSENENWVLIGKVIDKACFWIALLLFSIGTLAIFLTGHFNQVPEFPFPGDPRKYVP", "T3 sequence (P02718 22-522 limits assumed, chain 4 of 4, further chain)": "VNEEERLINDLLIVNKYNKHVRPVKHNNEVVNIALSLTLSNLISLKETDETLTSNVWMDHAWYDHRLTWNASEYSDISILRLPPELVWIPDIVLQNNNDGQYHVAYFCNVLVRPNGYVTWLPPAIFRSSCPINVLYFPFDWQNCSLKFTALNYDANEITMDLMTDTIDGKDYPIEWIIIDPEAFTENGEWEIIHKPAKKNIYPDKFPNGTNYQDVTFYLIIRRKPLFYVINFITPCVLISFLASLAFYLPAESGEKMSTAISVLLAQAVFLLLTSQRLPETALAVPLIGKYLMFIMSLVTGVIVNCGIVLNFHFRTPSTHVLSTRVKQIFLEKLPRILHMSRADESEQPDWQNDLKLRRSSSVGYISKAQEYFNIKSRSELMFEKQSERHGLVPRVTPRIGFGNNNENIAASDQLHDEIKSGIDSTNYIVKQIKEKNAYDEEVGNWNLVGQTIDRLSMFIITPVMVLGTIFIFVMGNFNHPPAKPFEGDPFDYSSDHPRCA", "conditions": "one partner purified"}, "[4]": {"molecular_target": "T1, human α7 nicotinic acetylcholine …", "conditions": "one partner purified", "remark": "listed apart in the source"}}, "note": "Positions of bridges follow the written chain, without caps; N, C: chain ends. No end group written: not given here."}
{"binder": "B1", "values": [{"measurement": "IC50", "setting": "[1]", "value": 69.2, "unit": "µM"}]}
{"binder": "B2", "values": [{"measurement": "IC50", "setting": "[2]", "value": 41.7, "unit": "µM"}, {"measurement": "IC50", "setting": "[3]", "value": 7.4, "unit": "µM"}, {"measurement": "IC50", "setting": "[1]", "value": 13.1, "unit": "µM"}]}
{"binder": "B3", "values": [{"measurement": "IC50", "setting": "[2]", "value": 40.7, "unit": "µM"}]}
{"binder": "B4", "values": [{"measurement": "IC50", "setting": "[1]", "value": 58.9, "unit": "µM"}]}
{"binder": "B5", "values": [{"measurement": "IC50", "setting": "[4]", "value": 148, "unit": "µM"}, {"measurement": "IC50", "setting": "[2]", "value": 41.7, "unit": "µM"}, {"measurement": "IC50", "setting": "[1]", "value": 173, "unit": "µM"}]}
